B1: APC/C-CDH1 modulator 1 (Saccharomyces cerevisiae), Q08981 (parent)
chain: MISPSKKRTILSSKNINQKPRAVVKGNELRSPSKRRSQIDTDYALRRSPIKTIQISKAAQFMLYEETAEERNIAVHRHNEIYNNNNSVSNENNPSQVKENLSPAKICPYERAFLREGGRIALKDLSVDEFKGYIQDPLTDETIPLTLPLGDKKISLPSFITPPRNSKISIFFTSKHQGQNPETKISRSTDDVSEKKVVRKLSFHVYEDE
partner: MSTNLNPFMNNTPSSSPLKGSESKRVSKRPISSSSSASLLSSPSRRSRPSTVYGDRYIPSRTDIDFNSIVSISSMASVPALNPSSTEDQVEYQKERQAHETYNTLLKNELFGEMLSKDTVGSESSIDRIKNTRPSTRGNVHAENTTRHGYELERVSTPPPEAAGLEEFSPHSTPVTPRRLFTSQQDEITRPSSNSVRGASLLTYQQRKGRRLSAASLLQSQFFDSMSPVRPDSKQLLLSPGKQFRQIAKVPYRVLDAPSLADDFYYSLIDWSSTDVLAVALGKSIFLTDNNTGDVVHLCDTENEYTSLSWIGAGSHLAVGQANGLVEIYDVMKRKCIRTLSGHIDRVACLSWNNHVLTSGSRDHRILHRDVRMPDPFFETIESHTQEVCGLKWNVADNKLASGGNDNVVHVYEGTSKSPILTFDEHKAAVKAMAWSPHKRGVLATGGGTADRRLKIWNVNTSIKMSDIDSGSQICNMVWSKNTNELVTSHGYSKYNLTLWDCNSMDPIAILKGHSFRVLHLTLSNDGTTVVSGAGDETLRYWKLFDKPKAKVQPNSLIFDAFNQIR

Variants of: B1
Settings: with cdh1_yeast CDH1, P53197

Question: Which “effect of a mutation on the interaction” value does the source give for MISPSKKRTILSSKNINQKPRAVVKGNELRSPSKRRSQIDTDYALRRSPIKTIQISKAAQFMLYEETAEERNIAVHRHNEIYNNNNSVSNENNPSQVKENLSPAKICPYERAFLREGGAIALKDLSVDEFKGYIQDPLTDETIPLTLPLGDKKISLPSFITPPRNSKISIFFTSKHQGQNPETKISRSTDDVSEKKVVRKLSFHVYEDE [R119A] here?
Answer: Its value is “disrupting interaction”.

Question: Which “effect of a mutation on the interaction” value does the source give for MISPSKKRTILSSKNINQKPRAVVKGNELRSPSKRRSQIDTDYALRRSPIKTIQISKAAQFMLYEETAEERNIAVHRHNEIYNNNNSVSNENNPSQVKEALSPAKICPYERAFLREGGRIALKDLSVDEFKGYIQDPLTDETIPLTLPLGDKKISLPSFITPPRNSKISIFFTSKHQGQNPETKISRSTDDVSEKKVVRKLSFHVYEDE [N100A] here?
Answer: The value was “disrupting interaction”.

Question: MISPSKKRTILSSKNINQKPRAVVKGNELRSPSKRRSQIDTDYALRRSPIKTIQISKAAQFMLYDETAEERNIAVHRHNEIYNNNNSVSNENNPSQVKENLSPAKICPYERAFLREGGRIALKDLSVDEFKGYIQDPLTDETIPLTLPLGDKKISLPSFITPPRNSKISIFFTSKHQGQNPETKISRSTDDVSEKKVVRKLSFHVYEDE [E65D] was tested. Which “effect of a mutation on the interaction” value did it give?
Answer: Its value is “disrupting interaction”.

Question: With MISPSKKRTILSSKNINQKPRAVVKGNELRSPSKRRSQIDTDYALRRSPIKTIQISKAAQFMLYEETAEERNIAVHRHNEIYNNNNSVSNENNPSQVKANLSPAKICPYERAFLREGGRIALKDLSVDEFKGYIQDPLTDETIPLTLPLGDKKISLPSFITPPRNSKISIFFTSKHQGQNPETKISRSTDDVSEKKVVRKLSFHVYEDE [E99A] as the variant, how does the “effect of a mutation on the interaction” value read?
Answer: The value was “disrupting interaction”.

Question: Which “effect of a mutation on the interaction” value does the source give for MISPSKKRTILSSKNINQKPRAVVKGNELRSPSKRRSQIDTDYALRRSPIKTIQISKAAQFMLYEETAEERNIAVHRHNEIYNNNNSVSNENNPSQVAENLSPAKICPYERAFLREGGRIALKDLSVDEFKGYIQDPLTDETIPLTLPLGDKKISLPSFITPPRNSKISIFFTSKHQGQNPETKISRSTDDVSEKKVVRKLSFHVYEDE [K98A] here?
Answer: Its value is “disrupting interaction”.

Question: With MISPSKKRTILSSKNINQKPRAVVKGNELRSPSKRRSQIDTDYALRRSPIKTIQISKAAQFMLYEETAEERNIAVHRHNEIYNNNNSVSNENNPSQVKENLSPAKICPYERAFLREGGRIAAKDLSVDEFKGYIQDPLTDETIPLTLPLGDKKISLPSFITPPRNSKISIFFTSKHQGQNPETKISRSTDDVSEKKVVRKLSFHVYEDE [L122A] as the variant, how does the “effect of a mutation on the interaction” value read?
Answer: Its value is “disrupting interaction”.

Question: With MISPSKKRTILSSKNINQKPRAVVKGNELRSPSKRRSQIDTDYALRRSPIKTIQISKAAQFMLYEATAEERNIAVHRHNEIYNNNNSVSNENNPSQVKENLSPAKICPYERAFLREGGRIALKDLSVDEFKGYIQDPLTDETIPLTLPLGDKKISLPSFITPPRNSKISIFFTSKHQGQNPETKISRSTDDVSEKKVVRKLSFHVYEDE [E66A] as the variant, how does the “effect of a mutation on the interaction” value read?
Answer: The value was “disrupting interaction”.

Variants of: B1
Settings: with cdh1_yeast CDH1, P53197
Remark: another data set of the same source

Question: For MISPSKKRTILSSKNINQKPRAVVKGNELRSPSKRRSQIDTDYALRRSPIKTIQISKAAQFMLYAETAEERNIAVHRHNEIYNNNNSVSNENNPSQVKENLSPAKICPYERAFLREGGRIALKDLSVDEFKGYIQDPLTDETIPLTLPLGDKKISLPSFITPPRNSKISIFFTSKHQGQNPETKISRSTDDVSEKKVVRKLSFHVYEDE [E65A], which “effect of a mutation on the interaction” value is on record?
Answer: Its value is “disrupting interaction”.

Question: MISPSKKRTILSSKNINQKPRAVVKGNELRSPSKRRSQIDTDYALRRSPIKTIQISKAAQFMLYEEAAEERNIAVHRHNEIYNNNNSVSNENNPSQVKENLSPAKICPYERAFLREGGRIALKDLSVDEFKGYIQDPLTDETIPLTLPLGDKKISLPSFITPPRNSKISIFFTSKHQGQNPETKISRSTDDVSEKKVVRKLSFHVYEDE [T67A] was tested. Which “effect of a mutation on the interaction” value did it give?
Answer: The value was “disrupting interaction”.

Question: MISPSKKRTILSSKNINQKPRAVVKGNELRSPSKRRSQIDTDYALRRSPIKTIQISKAAQFMLYEDTAEERNIAVHRHNEIYNNNNSVSNENNPSQVKENLSPAKICPYERAFLREGGRIALKDLSVDEFKGYIQDPLTDETIPLTLPLGDKKISLPSFITPPRNSKISIFFTSKHQGQNPETKISRSTDDVSEKKVVRKLSFHVYEDE [E66D] was tested. Which “effect of a mutation on the interaction” value did it give?
Answer: Its value is “disrupting interaction”.

Variants of: B1
Settings: with cdh1_yeast CDH1, P53197
Remark: another data set of the same source

Question: Which “effect of a mutation on the interaction” value does the source give for MISPSKKRTILSSKNINQKPRAVVKGNELRSPSKRRSQIDTDYALRRSPIKTIQISKAAQFMLYAETAEERNIAVHRHNEIYNNNNSVSNENNPSQVKENLSPAKICPYERAFLREGGRIALKDLSVDEFKGYIQDPLTDETIPLTLPLGDKKISLPSFITPPRNSKISIFFTSKHQGQNPETKISRSTDDVSEKKVVRKLSFHVYEDE [E65A] here?
Answer: The value was “decreasing interaction”.

Question: How did the “effect of a mutation on the interaction” value turn out when MISPSKKRTILSSKNINQKPRAVVKGNELRSPSKRRSQIDTDYALRRSPIKTIQISKAAQFMLYEEAAEERNIAVHRHNEIYNNNNSVSNENNPSQVKENLSPAKICPYERAFLREGGRIALKDLSVDEFKGYIQDPLTDETIPLTLPLGDKKISLPSFITPPRNSKISIFFTSKHQGQNPETKISRSTDDVSEKKVVRKLSFHVYEDE [T67A] was run?
Answer: Its value is “decreasing interaction”.

Question: With MISPSKKRTILSSKNINQKPRAVVKGNELRSPSKRRSQIDTDYALRRSPIKTIQISKAAQFMLYEATAEERNIAVHRHNEIYNNNNSVSNENNPSQVKENLSPAKICPYERAFLREGGRIALKDLSVDEFKGYIQDPLTDETIPLTLPLGDKKISLPSFITPPRNSKISIFFTSKHQGQNPETKISRSTDDVSEKKVVRKLSFHVYEDE [E66A] as the variant, how does the “effect of a mutation on the interaction” value read?
Answer: Its value is “decreasing interaction”.

Source: IntAct's records for PubMed 21460798
